Assay [1] concerns the target T1, human IL-12Rβ2 expressed on cells (human, UniProt Q99665 24-862).
T1 construct: the cell lines are described by plasmid or cDNA number only; also called hIL-12RB2; HEK293T transiently transfected with human IL-12Rβ2
T1 sequence: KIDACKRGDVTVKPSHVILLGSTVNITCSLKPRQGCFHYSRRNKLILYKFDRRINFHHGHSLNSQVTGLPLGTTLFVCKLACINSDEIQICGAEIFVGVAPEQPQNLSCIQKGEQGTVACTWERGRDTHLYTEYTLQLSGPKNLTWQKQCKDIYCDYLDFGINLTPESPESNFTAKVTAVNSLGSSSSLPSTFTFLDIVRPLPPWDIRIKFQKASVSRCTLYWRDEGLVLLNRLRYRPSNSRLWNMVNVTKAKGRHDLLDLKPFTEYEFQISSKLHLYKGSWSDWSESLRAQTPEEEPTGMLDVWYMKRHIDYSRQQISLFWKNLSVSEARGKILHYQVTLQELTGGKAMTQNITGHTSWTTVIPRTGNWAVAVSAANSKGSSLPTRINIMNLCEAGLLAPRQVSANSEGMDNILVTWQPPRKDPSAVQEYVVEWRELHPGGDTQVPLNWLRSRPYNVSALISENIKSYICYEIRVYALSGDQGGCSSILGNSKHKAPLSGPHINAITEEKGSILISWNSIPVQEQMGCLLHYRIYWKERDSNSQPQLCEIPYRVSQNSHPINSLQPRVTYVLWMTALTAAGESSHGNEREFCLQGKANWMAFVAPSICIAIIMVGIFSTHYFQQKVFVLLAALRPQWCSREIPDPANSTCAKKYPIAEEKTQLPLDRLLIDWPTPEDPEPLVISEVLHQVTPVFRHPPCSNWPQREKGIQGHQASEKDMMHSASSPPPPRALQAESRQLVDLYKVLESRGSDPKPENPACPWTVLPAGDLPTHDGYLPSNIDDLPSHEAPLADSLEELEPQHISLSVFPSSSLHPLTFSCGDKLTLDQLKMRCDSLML
In words: flow cytometry, periplasmic extract VHH-HA on HEK293T cells transiently expressing human IL-12Rβ2. A general note: Flow cytometry measures light scatter and fluorescence of single cells or particles in a stream.

Assay [2] has as its target T2, biotinylated human recombinant IL-12Rβ2 (produced in-house) (human, UniProt Q99665 24-622, random biotinylated).
T2 construct: Soluble recombinant protein used for panning, ELISA and BLI; also called hIL-12RB2; hIL12RB2
T2 sequence: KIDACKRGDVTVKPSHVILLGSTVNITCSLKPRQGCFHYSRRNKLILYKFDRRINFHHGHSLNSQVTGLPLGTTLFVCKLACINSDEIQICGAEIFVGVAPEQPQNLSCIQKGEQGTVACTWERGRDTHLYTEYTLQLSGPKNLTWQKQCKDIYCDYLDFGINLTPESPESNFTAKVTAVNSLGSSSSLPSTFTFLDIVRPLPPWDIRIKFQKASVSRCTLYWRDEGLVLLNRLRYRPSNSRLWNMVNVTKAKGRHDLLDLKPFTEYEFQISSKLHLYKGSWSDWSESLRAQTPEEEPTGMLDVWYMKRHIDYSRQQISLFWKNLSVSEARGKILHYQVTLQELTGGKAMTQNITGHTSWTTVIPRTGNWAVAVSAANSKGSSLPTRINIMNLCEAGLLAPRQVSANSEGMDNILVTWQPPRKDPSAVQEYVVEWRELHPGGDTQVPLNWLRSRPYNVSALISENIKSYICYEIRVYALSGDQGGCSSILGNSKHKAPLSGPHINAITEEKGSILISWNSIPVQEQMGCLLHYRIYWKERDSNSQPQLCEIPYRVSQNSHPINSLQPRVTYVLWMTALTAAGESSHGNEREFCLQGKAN
In words: BLI (Octet Red), periplasmic extract on biotinylated human IL-12Rβ2 on streptavidin tips.

Assay [3] addresses T2, biotinylated human recombinant IL-12Rβ2 …. In words: BLI (Octet Red), periplasmic extract on biotinylated human IL-12Rβ2 on streptavidin tips, 1:1 model. (Biolayer interferometry detects binding as a change in optical thickness at a sensor tip.)
For assay [4] the target is unchanged. Nature of the assay: ELISA, periplasmic extract on biotinylated human IL-12Rβ2; signal over streptavidin control well. In general terms: An ELISA detects its analyte on a solid surface through an enzyme-linked reagent.
Assay [5] deals with T3, biotinylated mouse recombinant IL-12Rβ2 (produced in-house) (mouse, UniProt P97378 24-637, random biotinylated).
T3 construct: Soluble recombinant protein used for panning, ELISA and BLI; also called mIL-12RB2; mIL12RB2
T3 sequence: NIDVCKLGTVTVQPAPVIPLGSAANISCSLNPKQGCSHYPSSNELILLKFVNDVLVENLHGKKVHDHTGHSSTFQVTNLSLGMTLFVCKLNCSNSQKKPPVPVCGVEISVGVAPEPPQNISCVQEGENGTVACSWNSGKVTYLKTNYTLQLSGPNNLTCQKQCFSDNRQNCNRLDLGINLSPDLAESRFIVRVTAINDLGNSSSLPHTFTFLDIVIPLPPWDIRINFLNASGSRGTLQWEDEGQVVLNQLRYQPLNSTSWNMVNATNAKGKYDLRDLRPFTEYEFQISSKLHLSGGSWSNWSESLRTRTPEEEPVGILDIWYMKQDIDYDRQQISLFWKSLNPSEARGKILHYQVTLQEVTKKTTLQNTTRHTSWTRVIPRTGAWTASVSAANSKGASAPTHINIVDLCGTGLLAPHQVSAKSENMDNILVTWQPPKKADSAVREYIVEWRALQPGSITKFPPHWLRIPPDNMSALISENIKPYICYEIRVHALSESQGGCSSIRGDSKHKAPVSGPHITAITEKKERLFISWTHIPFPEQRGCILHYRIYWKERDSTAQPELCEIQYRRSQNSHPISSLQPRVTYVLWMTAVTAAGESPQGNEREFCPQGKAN
In words: ELISA, periplasmic extract on biotinylated mouse IL-12Rβ2; signal over streptavidin control well.

The target in assay [6] is T3, biotinylated mouse recombinant IL-12Rβ2 …. In words: ELISA, periplasmic extract on biotinylated mouse IL-12Rβ2.

B1: anti-IL-12Rβ2 VHH clone 3CRHS163 (clone ID 20438) (VHH)
VHH: QVQLQESGGGLVQPGGSLRLSCTASGFAFSTYWMYWIRQSPEKGFEWVSVVNTGGDITYYADSVKGRFTISRDNAKNTLYLQMNSLKPEDTALYYCARDRTTMSYTRTYYRGGQGTQVTVSS
notes: Tested as periplasmic extract; also called 3CANS142; not shown: C-terminal HA tag
What is called koff is the first-order rate constant of dissociation. On to B1, for which, in assay [1], the “% cells bound” value is 43.7% and the dMFI stood at 1050. Moreover, in assay [2], the Response came to 0.339. Moreover, the koff in assay [3] was found to be 0.00302 s⁻¹. Besides, the “hIL12RB2/control (ELISA)” value in assay [4] was 3.58 ratio. Also, the “mIL12RB2/control (ELISA)” value in assay [5] came out at 0.93 ratio. Further, in assay [6], the binding result is on record as “no binding”.

B2: anti-IL-12Rβ2 VHH clone 3CAHS142 (clone ID 20401) (VHH)
VHH: QVQLQESGGGLVQAGESLTLSCIASGVIKDYAMGWFRQAPGKEREFVAAISWSGVSIYYADSVKGRFTISRDNAKNTVYLQMNSLEPEDTAVYYCAGTEGAYTVAGGSTFGYDMDYWGKGTQVTVSS
notes: Tested as periplasmic extract; not shown: C-terminal HA tag
In the case of B2, in assay [1], the “% cells bound” value was 40.9% and the dMFI stood at 812. In addition, the Response in assay [2] was found to be 0.352. In assay [3], the koff is 0.00324 s⁻¹. Moreover, the “hIL12RB2/control (ELISA)” value in assay [4] worked out at 4.98 ratio. Besides, in assay [5], the “mIL12RB2/control (ELISA)” value is 1.07 ratio. In addition, in assay [6], the binding result is given as “no binding”.

B3: anti-IL-12Rβ2 VHH clone 3CAHS124 (clone ID 20400) (VHH)
VHH: QVQLQESGGGLVQPGGSLRLSCAASGRTINAYIMGWFRQAPGKEREFVAAVSGSGGSTYYADSVKGRFTISRDNAKNTVNLQMDNLRSEDTDVYYCAATYESVYLQNPGQYDYWGQGTQVTVSS
notes: as for B2
With B3, in assay [1], the “% cells bound” value worked out at 46.3% and the dMFI worked out at 1100. Besides, the Response in assay [2] was 0.293. The koff in assay [3] stood at 0.00324 s⁻¹. Besides, the “hIL12RB2/control (ELISA)” value in assay [4] was found to be 5.67 ratio. The “mIL12RB2/control (ELISA)” value in assay [5] stood at 1 ratio. In addition, the binding result in assay [6] is on record as “no binding”.

B4: anti-IL-12Rβ2 VHH clone 3CRHS106 (clone ID 20429) (VHH)
VHH: QVQLQESGGGLVQPGGSLRLSCKASGFTFSTYAMSWVRQAPGKGLEWVSAVNSGGLSTDYADSVEGRFTISRDDAKNMLFLQMNSLKPEDTARYYCAKYEDCSDYMCHRDRAGYWGQGTQVTVSS
notes: as for B2
In the case of B4, in assay [1], the “% cells bound” value was 43.3% and the dMFI worked out at 1010. The Response in assay [2] is 0.297. In assay [3], the koff came out at 0.00355 s⁻¹. The “hIL12RB2/control (ELISA)” value in assay [4] amounted to 10.2 ratio. Further, the “mIL12RB2/control (ELISA)” value in assay [5] was 1.03 ratio. The binding result in assay [6] is “no binding”.

B5: anti-IL-12Rβ2 VHH clone 2CRH82 (clone ID 20372) (VHH)
VHH: QVQLQESGGGLVQAGGSLRLSCAASARTESMYAMAWFRQAPGKEREIVAGIIQSGGTTYISDYMKGRFSIDRGNAENTVYLQMDSLKPEDTAVYSCAAKVSSGTPSDIQISQSRWYDHWGQGTQVTVSS
notes: as for B2
As to B5, in assay [1], the “% cells bound” value was found to be 40.1% and the dMFI amounted to 744. For the same molecule, in assay [2], the Response stood at 0.426. The koff in assay [3] worked out at 0.00274 s⁻¹. Besides, the “hIL12RB2/control (ELISA)” value in assay [4] was found to be 16.1 ratio. In assay [5], the “mIL12RB2/control (ELISA)” value was found to be 1.77 ratio. Also, the binding result in assay [6] is recorded as “no binding”.

B6: anti-IL-12Rβ2 VHH clone 3CRH25 (clone ID 20378) (VHH)
VHH: QVQLQESGGGLVQAGDSLRLSCTASGHTFSRYTTIGWFRQAPGKDREFVAAIRWSGDITDYADAVKGRFTISRDNVKNTVYLQMNSLNPEDTAVYYCARGYSEYGVLSRNRGLYAYWGQGTQVTVSS
notes: as for B2
For B6, in assay [1], the “% cells bound” value worked out at 34.8% and the dMFI came out at 520. In assay [2], the Response turned out to be 0.523. The koff in assay [3] came to 0.00205 s⁻¹. In addition, the “hIL12RB2/control (ELISA)” value in assay [4] stood at 5.16 ratio. Further, the “mIL12RB2/control (ELISA)” value in assay [5] worked out at 1.04 ratio. Also, the binding result in assay [6] is reported as “no binding”.

B7: anti-IL-12Rβ2 VHH clone 3CRH5 (clone ID 20373) (VHH)
VHH: QVQLQESGGGLVQAGGSLVLSCAASGSAALIFLMSWYRQAPGKQRELVAEVSRGGSTTYADSVEGRFTISRDNAKNIVDLQMNSLKPEDTAVYYCKADQNYGDSLRSSWGQGTQVTVSS
notes: Tested as periplasmic extract; also called 3CRHS; not shown: C-terminal HA tag
For B7, in assay [1], the “% cells bound” value is 39.5% and the dMFI is 735. The Response in assay [2] was 0.491. Besides, the koff in assay [3] was 0.00337 s⁻¹. In assay [4], the “hIL12RB2/control (ELISA)” value was 8.64 ratio. In assay [5], the “mIL12RB2/control (ELISA)” value came out at 0.81 ratio. Moreover, the binding result in assay [6] is listed as “no binding”.
